# Values of other authors, collected in patent US20260183395A1, “COMBINED THERAPIES USING IMMUNOMODULATING DRUGS” (ONK THERAPEUTICS LIMITED, priority 2022, published 2026).
# Tests used:
# [1] = biological target: DR4 (Homo sapiens, UniProt O00220); settings: surface plasmon resonance; WO 2009/077857
# [2] = biological target: T1, decoy receptor DcR1 (Homo sapiens, UniProt O14798); settings: surface plasmon resonance; WO 2009/077857
# T1 sequence (O14798 26-236): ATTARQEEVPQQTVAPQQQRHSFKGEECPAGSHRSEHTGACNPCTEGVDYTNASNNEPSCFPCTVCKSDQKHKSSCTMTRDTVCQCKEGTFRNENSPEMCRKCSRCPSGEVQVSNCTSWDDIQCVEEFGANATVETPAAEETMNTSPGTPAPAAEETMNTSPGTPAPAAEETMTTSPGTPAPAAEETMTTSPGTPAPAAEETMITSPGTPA
substance,measurement,setting,value
"Wildtype TRAIL: Wildtype TRAIL ligand, baseline for the affinity of TRAIL variants/mutants",Kd,[1],> 2 nM
same,Kd,[2],> 20 nM
